# Key:
# [1] = target: fibrinogen (MP Biomedicals), a human fibrin precursor (UniProt P02671)
# [2] = target: prothrombin (Sigma), a human blood coagulation factor (UniProt P00734)
# [3] = tested on: fibrin of the fibrin plate (fibrinogen converted with 40 units of thrombin)
substance,measurement,setting,value
"serine protease present in the venom of Bombus ignitus, activated form (Bi-VSP)","human fibrinogen hydrolysis by Bi-VSP, SDS-PAGE time course (Aα chain)",[1],Aα chain was completely hydrolyzed within 5 min after the reaction
same,"human fibrinogen hydrolysis by Bi-VSP, SDS-PAGE time course (Bβ and γ chains)",[1],Bβ and γ chains were completely hydrolyzed within 60 min
same,"human prothrombin activation by Bi-VSP, SDS-PAGE time course",[2],prothrombin started to convert into an activated form of thrombin 5 min after the reaction
same,"fibrin plate assay, fibrinolytic activity",[3],white zones for the fibirnolysis were formed according to each different concentration

# Reference: US20110195482
